B1: Apt[C3-GFP] (structured_RNA)
RNA: GGGAGCCUGAUGGCAGGGCGAAUUGGGUGGGGAAAGUCCUUAAAAGAGGGCCACCACAGAAGCAAUGGGCUUCUGGACUCGGUCCCGCUCGGCUAGAAGAAUAUGACGGAUUGACCGUAUCAGGGUAGCCGAGC
B2: AptC3-2 (structured_RNA)
RNA: GGGAGAAUUCAACUGCCAUCUAGGCAAAUCCGCGAGCGCCGGUACCGGUGGCGCAUGCCCACACAGCACUAAACGAGUACUACAAGCUUCUGGACUCGGU

What was measured:
C3b = C3b (Homo sapiens, UniProt P01024;P01024 23-667;749-1663); test: filter binding
iC3b [1] = target: T1, iC3b (Homo sapiens, UniProt P01024;P01024;P01024 23-667;749-1303;1321-1663); test: filter binding
T1 sequence (P01024 23-667, chain 1 of 3): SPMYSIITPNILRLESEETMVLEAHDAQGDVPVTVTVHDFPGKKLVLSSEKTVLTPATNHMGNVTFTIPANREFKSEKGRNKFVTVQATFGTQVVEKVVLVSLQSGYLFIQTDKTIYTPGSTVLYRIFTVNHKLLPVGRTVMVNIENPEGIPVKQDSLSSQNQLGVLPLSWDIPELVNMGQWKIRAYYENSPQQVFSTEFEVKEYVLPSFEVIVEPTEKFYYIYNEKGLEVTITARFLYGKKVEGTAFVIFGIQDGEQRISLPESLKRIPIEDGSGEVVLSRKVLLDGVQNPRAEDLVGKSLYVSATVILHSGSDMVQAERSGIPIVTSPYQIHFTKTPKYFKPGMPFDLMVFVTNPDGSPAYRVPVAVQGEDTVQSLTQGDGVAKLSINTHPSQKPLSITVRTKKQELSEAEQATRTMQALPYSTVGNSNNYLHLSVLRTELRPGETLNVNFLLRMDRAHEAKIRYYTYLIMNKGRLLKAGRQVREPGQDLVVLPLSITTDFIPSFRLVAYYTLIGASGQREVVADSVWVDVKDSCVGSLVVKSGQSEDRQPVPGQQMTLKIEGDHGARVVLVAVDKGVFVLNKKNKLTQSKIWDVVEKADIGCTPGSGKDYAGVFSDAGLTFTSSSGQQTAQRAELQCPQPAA
T1 sequence (P01024 749-1303, chain 2 of 3): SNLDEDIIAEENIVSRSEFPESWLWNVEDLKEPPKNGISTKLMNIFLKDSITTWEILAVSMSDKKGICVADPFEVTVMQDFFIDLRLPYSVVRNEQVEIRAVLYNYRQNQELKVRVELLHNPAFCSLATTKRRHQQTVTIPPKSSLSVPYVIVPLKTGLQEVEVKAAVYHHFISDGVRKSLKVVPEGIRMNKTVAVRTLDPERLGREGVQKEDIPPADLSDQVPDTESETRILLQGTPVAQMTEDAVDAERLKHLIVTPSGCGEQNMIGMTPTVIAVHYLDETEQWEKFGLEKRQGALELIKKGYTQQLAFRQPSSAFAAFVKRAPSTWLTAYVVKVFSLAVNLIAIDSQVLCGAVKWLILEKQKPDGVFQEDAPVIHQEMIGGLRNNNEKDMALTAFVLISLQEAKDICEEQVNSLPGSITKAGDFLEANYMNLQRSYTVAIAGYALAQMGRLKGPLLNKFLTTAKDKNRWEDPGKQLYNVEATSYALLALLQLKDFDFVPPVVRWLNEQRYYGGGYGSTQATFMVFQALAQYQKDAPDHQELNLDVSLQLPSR
T1 sequence (P01024 1321-1663, chain 3 of 3): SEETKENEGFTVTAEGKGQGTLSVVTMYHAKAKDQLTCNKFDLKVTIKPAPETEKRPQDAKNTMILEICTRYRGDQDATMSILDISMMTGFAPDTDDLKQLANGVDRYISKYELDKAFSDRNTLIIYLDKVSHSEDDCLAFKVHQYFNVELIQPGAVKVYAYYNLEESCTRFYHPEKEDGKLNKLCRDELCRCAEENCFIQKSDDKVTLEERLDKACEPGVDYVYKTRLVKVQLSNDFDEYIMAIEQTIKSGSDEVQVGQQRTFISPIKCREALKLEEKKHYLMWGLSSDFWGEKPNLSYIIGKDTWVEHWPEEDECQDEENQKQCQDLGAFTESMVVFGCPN

iC3b [2] = target: T1, iC3b; test: EMSA

Sequence of C3b (P01024 23-667, chain 1 of 2): as the sequence (P01024 23-667, chain 1 of 3) above
Sequence of C3b (P01024 749-1663, chain 2 of 2): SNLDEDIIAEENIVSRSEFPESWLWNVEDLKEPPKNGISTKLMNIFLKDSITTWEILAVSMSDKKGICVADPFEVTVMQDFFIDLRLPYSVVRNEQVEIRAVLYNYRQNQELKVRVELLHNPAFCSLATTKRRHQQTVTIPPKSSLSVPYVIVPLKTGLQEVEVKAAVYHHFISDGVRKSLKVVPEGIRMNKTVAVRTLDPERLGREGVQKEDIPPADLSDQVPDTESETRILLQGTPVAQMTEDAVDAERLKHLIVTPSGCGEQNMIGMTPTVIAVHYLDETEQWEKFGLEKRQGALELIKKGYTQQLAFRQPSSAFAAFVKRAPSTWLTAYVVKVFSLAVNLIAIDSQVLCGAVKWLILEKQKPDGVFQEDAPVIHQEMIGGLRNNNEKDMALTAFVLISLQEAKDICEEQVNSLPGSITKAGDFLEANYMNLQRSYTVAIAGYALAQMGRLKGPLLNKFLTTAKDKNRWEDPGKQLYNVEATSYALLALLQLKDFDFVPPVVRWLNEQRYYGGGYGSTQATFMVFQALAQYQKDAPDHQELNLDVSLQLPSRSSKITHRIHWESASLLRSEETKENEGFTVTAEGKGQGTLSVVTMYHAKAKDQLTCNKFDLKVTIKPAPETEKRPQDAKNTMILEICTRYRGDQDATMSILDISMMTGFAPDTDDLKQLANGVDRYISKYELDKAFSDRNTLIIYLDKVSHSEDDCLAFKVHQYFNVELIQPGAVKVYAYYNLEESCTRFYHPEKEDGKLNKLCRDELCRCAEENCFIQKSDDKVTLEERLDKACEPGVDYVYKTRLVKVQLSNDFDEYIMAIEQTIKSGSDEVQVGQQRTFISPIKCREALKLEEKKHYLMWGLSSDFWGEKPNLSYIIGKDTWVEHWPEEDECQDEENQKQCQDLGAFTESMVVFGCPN

| Binder | binding result (C3b) | binding result (iC3b [1]) | binding result (iC3b [2]) |
| --- | --- | --- | --- |
| B1 | binds | binds |  |
| B2 |  |  | no binding |
